Results from PMC3413117 (Nucleic Acids Research, 2012).

Key:
SEC = biological target: the molecule itself; test: SEC
LiBRCA2-B1 = biological target: T1, LiBRCA2-B1 (Leishmania infantum, UniProt A4HYJ9 1-122); test: EMSA
T1 sequence: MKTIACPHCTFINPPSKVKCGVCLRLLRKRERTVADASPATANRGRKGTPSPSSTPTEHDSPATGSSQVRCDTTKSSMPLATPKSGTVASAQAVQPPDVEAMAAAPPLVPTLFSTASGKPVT

LiBRCA2 = biological target: T2, LiBRCA2 (Leishmania infantum, UniProt A4HYJ9 1-1165); test: EMSA
T2 sequence: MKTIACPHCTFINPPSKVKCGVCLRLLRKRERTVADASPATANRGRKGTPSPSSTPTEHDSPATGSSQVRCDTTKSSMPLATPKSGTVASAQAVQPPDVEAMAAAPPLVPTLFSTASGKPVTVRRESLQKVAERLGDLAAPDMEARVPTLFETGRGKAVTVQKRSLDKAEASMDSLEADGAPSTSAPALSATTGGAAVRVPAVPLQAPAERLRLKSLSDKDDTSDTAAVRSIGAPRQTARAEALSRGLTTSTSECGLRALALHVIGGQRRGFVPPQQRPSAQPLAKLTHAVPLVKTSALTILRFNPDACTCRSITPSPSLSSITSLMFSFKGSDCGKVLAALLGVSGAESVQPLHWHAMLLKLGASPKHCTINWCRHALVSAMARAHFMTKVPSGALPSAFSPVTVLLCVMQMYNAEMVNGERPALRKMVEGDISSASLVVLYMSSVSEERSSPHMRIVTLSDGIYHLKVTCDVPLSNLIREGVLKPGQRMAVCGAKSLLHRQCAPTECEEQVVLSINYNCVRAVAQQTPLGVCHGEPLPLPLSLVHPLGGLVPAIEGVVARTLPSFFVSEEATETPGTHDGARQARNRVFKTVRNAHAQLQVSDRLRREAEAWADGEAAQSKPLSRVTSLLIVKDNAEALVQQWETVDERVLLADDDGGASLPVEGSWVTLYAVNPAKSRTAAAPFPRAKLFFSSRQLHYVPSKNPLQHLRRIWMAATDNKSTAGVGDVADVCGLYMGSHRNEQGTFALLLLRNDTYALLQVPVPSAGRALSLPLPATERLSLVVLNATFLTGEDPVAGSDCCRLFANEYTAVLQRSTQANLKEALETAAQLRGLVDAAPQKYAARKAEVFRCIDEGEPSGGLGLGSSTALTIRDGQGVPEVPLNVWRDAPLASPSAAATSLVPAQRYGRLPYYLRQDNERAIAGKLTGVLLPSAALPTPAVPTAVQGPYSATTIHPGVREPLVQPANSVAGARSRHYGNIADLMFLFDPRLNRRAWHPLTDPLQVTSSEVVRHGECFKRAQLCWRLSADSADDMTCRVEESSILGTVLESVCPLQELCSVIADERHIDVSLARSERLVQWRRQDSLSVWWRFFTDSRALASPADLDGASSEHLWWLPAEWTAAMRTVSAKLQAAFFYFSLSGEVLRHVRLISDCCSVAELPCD

B1: Leishmania infantum RAD51, purified (GST tag cleaved) (natural protein)
chain: MQTRSKAKGRRGRPSARPSEEVEVVESQPQEALQNEEQEPRQQQQQSTDMAEPNASGFRVIQILENYGVASSDIKKLMECGFYTVESAAYAPKKAILAVKGISENKAEKIMAECAKLVPMGFTSAVAYHEARKEIIMVTTGSREVDKLLGGGIETGSITELFGEFRTGKTQLCHTLCVTCQLPISQGGAEGMALYIDTEGTFRPERLVAVAERYKLDPEDVLANVACARAFNTDHQQQLLLQASAMMAENRFALIVVDSATALYRTDYSGRNELAARQMHLGKFLRSLHNLAEEYGVAVVVTNQVVANVDGSAQMFQADSKKPIGGHIMAHASTTRLSLRKGRGEQRIIKVYDSPCLAEAEAIFGIYDDGVGDARD
- binding result (SEC): binds

B2: Leishmania infantum BRCA2, purified LiBRCA2-His (GST tag cleaved) (natural protein)
chain: MKTIACPHCTFINPPSKVKCGVCLRLLRKRERTVADASPATANRGRKGTPSPSSTPTEHDSPATGSSQVRCDTTKSSMPLATPKSGTVASAQAVQPPDVEAMAAAPPLVPTLFSTASGKPVTVRRESLQKVAERLGDLAAPDMEARVPTLFETGRGKAVTVQKRSLDKAEASMDSLEADGAPSTSAPALSATTGGAAVRVPAVPLQAPAERLRLKSLSDKDDTSDTAAVRSIGAPRQTARAEALSRGLTTSTSECGLRALALHVIGGQRRGFVPPQQRPSAQPLAKLTHAVPLVKTSALTILRFNPDACTCRSITPSPSLSSITSLMFSFKGSDCGKVLAALLGVSGAESVQPLHWHAMLLKLGASPKHCTINWCRHALVSAMARAHFMTKVPSGALPSAFSPVTVLLCVMQMYNAEMVNGERPALRKMVEGDISSASLVVLYMSSVSEERSSPHMRIVTLSDGIYHLKVTCDVPLSNLIREGVLKPGQRMAVCGAKSLLHRQCAPTECEEQVVLSINYNCVRAVAQQTPLGVCHGEPLPLPLSLVHPLGGLVPAIEGVVARTLPSFFVSEEATETPGTHDGARQARNRVFKTVRNAHAQLQVSDRLRREAEAWADGEAAQSKPLSRVTSLLIVKDNAEALVQQWETVDERVLLADDDGGASLPVEGSWVTLYAVNPAKSRTAAAPFPRAKLFFSSRQLHYVPSKNPLQHLRRIWMAATDNKSTAGVGDVADVCGLYMGSHRNEQGTFALLLLRNDTYALLQVPVPSAGRALSLPLPATERLSLVVLNATFLTGEDPVAGSDCCRLFANEYTAVLQRSTQANLKEALETAAQLRGLVDAAPQKYAARKAEVFRCIDEGEPSGGLGLGSSTALTIRDGQGVPEVPLNVWRDAPLASPSAAATSLVPAQRYGRLPYYLRQDNERAIAGKLTGVLLPSAALPTPAVPTAVQGPYSATTIHPGVREPLVQPANSVAGARSRHYGNIADLMFLFDPRLNRRAWHPLTDPLQVTSSEVVRHGECFKRAQLCWRLSADSADDMTCRVEESSILGTVLESVCPLQELCSVIADERHIDVSLARSERLVQWRRQDSLSVWWRFFTDSRALASPADLDGASSEHLWWLPAEWTAAMRTVSAKLQAAFFYFSLSGEVLRHVRLISDCCSVAELPCD
- binding result (SEC): binds

B3: 60-mer ssDNA (JYM925) (ssDNA)
DNA: GGGTGAACCTGCAGGTGGGCAAAGATGTCCTAGCAATGTAATCGTCAAGCTTTATGCCGT
- binding result (LiBRCA2-B1): no binding
- binding result (LiBRCA2): binds

B4: 60-mer dsDNA (JYM925/JYM945) (dsDNA)
DNA 1: GGGTGAACCTGCAGGTGGGCAAAGATGTCCTAGCAATGTAATCGTCAAGCTTTATGCCGT
DNA 2: ACGGCATAAAGCTTGACGATTACATTGCTAGGACATCTTTGCCCACCTGCAGGTTCACCC
- binding result (LiBRCA2): no binding
